In US7211422B2, “Polypeptide having α-isomaltosylglucosaccharide synthase activity” (Kabushiki Kaisha Hayashibara Seibutsu Kagaku Kenkyujo, priority 2001, dated 2007):

Assays:
[1] = Effect of temperature and pH on α-isomaltosylglucosaccharide-forming enzyme activity; format: biochemical; details: for Optimum temperature: pH 8.4 for 60 minutes
Method: The two types of enzymatic activities described above were measured as following. The activity of α-isomaltosylglucosaccharide-forming enzyme was measured by the following assay: A substrate solution was prepared by dissolving maltotriose in 100 mM acetate buffer (pH 6.0) to give a concentration of 2% (w/v). A reaction mixture was prepared by mixing 0.5 ml of the substrate solution and 0.5 ml of an enzyme solution, and incubated at 35° C. for 60 minutes. After stopping the reaction by boiling for 10 minutes, the amount of maltose formed in the reaction mixture was determined by high-performance liquid chromatography (HPLC). One unit of α-isomaltosylglucosaccharide-forming activity was defined as the amount of the enzyme that forms one μmole of maltose per minute under the above conditions. HPLC was carried out using “SHODEX KS-801 column”, Showa Denko K. K., Tokyo, Japan, at a column temperature of 60° C. and a flow rate of 0.5 ml/minutes of water, and using “RI-8012”, a differential refractometer commercialized by Tosoh Corporation, Tokyo, Japan.
The effect of temperature and pH on the α-isomaltosylglucosaccharide-forming enzyme activity was examined in accordance with the assay for the α-isomaltosylglucosaccharide-forming enzyme activity under various temperature and pH conditions. The effect of temperature was conducted in the presence or absence of 1 mM Ca^2+. […] The optimum temperature of the polypeptide having α-isomaltosylglucosaccharide-forming enzyme activity from a strain C11 was about 45° C. (in the absence of Ca^2+) and about 50° C. (in the presence of Ca^2+) when incubated at pH 6.0 for 60 minutes, and the optimum pH was about 6.0 when incubated at 35° C. for 60 minutes. The optimum temperature of the polypeptide having α-isomaltosylglucosaccharide-forming enzyme activity from a strain N75 was about 50° C. (in the absence of Ca^2+) and about 55° C. (in the presence of Ca^2+) when incubated at pH 6.0 for 60 minutes, and the optimum pH was about 6.0 when incubated at 35° C. for 60 minutes. The optimum temperature of the polypeptide having α-isomaltosylglucosaccharide-forming enzyme activity from a strain A19 was about 60° C. (in the absence of Ca^2+) and about 65° C. (in the presence of Ca^2+) when incubated at pH 8.4 for 60 min, and the optimum pH was about 8.4 when incubated at 35° C. for 60 minutes.

[2] = Test on reducing-power formation; format: biochemical; details: 1% (w/v) maltotetraose, 0.25 unit/g substrate, 35° C., pH 6.0 (pH 8.4 for A19)
Method: The following test was carried out to study whether the polypeptide having α-isomaltosylglucosaccharide-forming enzyme activity had the ability of forming reducing-power or not. To a 1% (w/v) aqueous solution of maltotetraose as a substrate was added 0.25 unit/g substrate, d.s.b., of either of purified polypeptide specimen of α-isomaltosylglucosaccharide-forming enzyme from Bacillus globisporus C11 obtained by the method in Experiment 1-3, Bacillus globisporus N75 obtained by the method in Experiment2-3, or Arthrobacter globiformis A19 obtained by the method in Experiment 3-3, and incubated at 35° C. and at pH 6.0, except that pH 8.4 was used for the enzyme from Arthrobacter globiformis A19. During the reaction, a portion of each reaction mixture was sampled at prescribed time intervals and measured for reducing power after keeping at 100° C. for 10 minutes to stop the enzymatic reaction. Before and after the enzymatic reaction, the reducing sugar content and total sugar content were respectively quantified by the Somogyi-Nelson method and anthrone-sulfuric acid method. The percentage of forming reducing power was calculated by the following equation: Percentage of forming reducing power (%)=(AR/AT−BR/BT)×100 Equation: • AR: Reducing sugar content after enzymatic reaction. • AT: Total sugar content after enzymatic reaction. • BR: Reducing sugar content before enzymatic reaction. • BT: Total sugar content before enzymatic reaction.

[3] = Thermal stability and pH stability (residual enzyme activity); format: physicochemical; details: 20 mM Glycine-NaOH buffer pH 8.0, 60 minutes
Method: The thermal stability of the polypeptide having α-isomaltosylglucosaccharide-forming enzyme activity was determined by incubating the testing polypeptide solution in 20 mM acetate buffer, pH6.0 (in the case of the polypeptide from a strain A19, 20 m M Glycine-NaOH buffer, pH 8.0) at prescribed temperatures for 60 minutes in the presence or absence of 1 mM Ca^2+, cooling with water the resulting polypeptide solutions, and assaying the residual enzyme activity of each solution. The pH stability of the polypeptide having α-isomaltosylglucosaccharide-forming enzyme activity was determined by keeping the testing polypeptide solutions in 50 mM buffer having prescribed pHs at 4° C. for 24 hours, adjusting the pH of each solution to 6.0 (in the case of the polypeptide from a strain A19, pH 8.0), and assaying the residual enzyme activity of each solution. […] The thermal stability of the polypeptide having α-isomaltosylglucosaccharide-forming enzyme activity from a strain C11 was up to about 40° C. (in the absence of Ca^2+) and about 45° C. (in the presence of Ca^2+), and pH stability of about 5.0 to about 10.0. The thermal stability of the polypeptide having α-isomaltosylglucosaccharide-forming enzyme activity from a strain N75 was up to about 45° C. (in the absence of Ca^2+) and about 50° C. (in the presence of Ca^2+), and pH stability of about 5.0 to about 9.0. The thermal stability of the polypeptide having α-isomaltosylglucosaccharide-forming enzyme activity from a strain A19 was up to about 55° C. (in the absence of Ca^2+) and about 60° C. (in the presence of Ca^2+), and pH stability of about 5.0 to about 9.0.

[4] = Isoelectric point by isoelectrophoresis (2% ampholine gel); format: physicochemical; details: gel containing 2% (w/v) ampholine
Source text: Purified specimens of the polypeptide having α-isomaltosylglucosaccharide-forming enzyme activity from Bacillus globisporus C11 obtained by the method in Experiment 1-3, Bacillus globisporus N75 obtained by the method in Experiment 2–3, and Arthrobacter globiformis A19 obtained by the method in Experiment 3-3 were subjected to isoelectrophoresis using a gel containing 2% (w/v) ampholine commercialized by Amersham Biosciences K. K., Tokyo, Japan (old name, Amersham Pharmacia Biotech), and then measured pHs of protein bands and gel to determine their isoelectric points.

B1: Enzyme of Strain A19: purified polypeptide having α-isomaltosylglucosaccharide-forming enzyme activity from Arthrobacter globiformis A19 (Experiment 3-3); contains SEQ ID NO: 3 (protein)
chain: APLGVQRAQFQSGSSYLVVEVLDDDLVHFELAGGGTAPGTGSPLFTTPQVAKHDYAGPDVFTQTGSVLQTAAMRIEVDPADLCVTATDITRTPNLVLHEACPADLGQAWKGLNITRSAMENAYGLGQQFFTGGSADGDWVGRTRTPGGTYGNAMVFDPENGPVGNTQIPVLFAVGDDNANYGLFVDQLYKQEWNLTGDPWTVRMWGDQVRWYLMSGDDLPDLRHDYMELTGTPPVPPKKAFGLWVSEFGYDNWSEVDNTIAGLRSADFPVDGAMLDVQWFGGVTADSDDTRMGTLDWDTSRFPDPAGKIADLAEDGVGIIPIEESYVGRNLPEHARMAADGYLVRSGCATCPPVYLTGNPWWGKGGMIDWTQPEAGAVWHDEQRQHLVDEGVLGHWLDLGEPEMYDPNDWTAGVIPGKHAHADYHNAYNLLWAQSIADGYADNGVQKRPFMLTRAAAAGIQRHGAGMWSADIGSTMKALGSQQNAQMHMSMSGIDYYGSDIGGFRREMADGDVNELYTQWFADSAWFDTPLRPHTDNLCNCLETSPDSIGDVASNRENLVRRYELAPYYYSLAHRAHQFGEPLAPPLVYYYQNDDHVREMGHQKMLGRDLLIAIVAGEGERERDVYLPAGEWIDIHTNERIQSTGQWIDNVPLWRDGVFTLPAYARAGAIIPKAFVDASTKDITGKREDAAVRNELIATVYADDVASDFTLYEDDGATTAYADGAVRTTQISQSLTNGVATVTVGAASGTYSGAPSTRPTVVELVTDGTQASTVSLGSVPLTEHANKAAFDAASSGWYNAGGGLVVAKAASSSVNTAKTFSFTLGEESVWATFSCENATTTFGQSVYVVGNVPQLGNWSPADAVKLEPSAYPTWTGVVRNLPPSSTVEWKCIKRQEAGLPNTADAWEPGGNNILSTPPSGSAGITTGAF
modifications: Arthrobacter globiformis A19
- Optimum temperature ([1]; in the absence of Ca2+): about 60 °C
- Optimum temperature ([1]; in the presence of 1 mM Ca2+): about 65 °C
- Optimum pH ([1]; incubated at 35° C. for 60 minutes): about 8.4
- Percentage of forming reducing power ([2]; reaction time 0 hour): 0.0%
- Percentage of forming reducing power ([2]; reaction time 1 hour): 0.0%
- Percentage of forming reducing power ([2]; reaction time 2 hours): 0.1%
- Percentage of forming reducing power ([2]; reaction time 4 hours): 0.0%
- Percentage of forming reducing power ([2]; reaction time 8 hours): 0.1%
- Thermal stability ([3]; in the absence of Ca2+): up to 55 °C
- Thermal stability ([3]; in the presence of 1 mM Ca2+): ≤ 60 °C
- Isoelectric point [4]: about 4.3±0.5
